# According to paper PMC5413351, “Structural basis of protein translocation by the Vps4-Vta1 AAA ATPase” (eLife, 2017):
# Where no end group is shown, it is not given here.
# B1: Vta1^VSL (domain or fragment)
# chain: SYTKDELTKIMDRASKIEQIQKLAKYAISALNYEDLPTAKDELTKALDLLNSI
# modifications: also: homodimer
# Target: Vta1^VSL (S. cerevisiae, UniProt Q06263 1-330)
# Assay: cryo-EM structure
# Settings: both partners purified
binder,measurement,value
B1,stoichiometry N,2
